Data from the Human Domainome abundance scans (Beltran et al. 2025).

B1: Retinoic acid receptor RXR-alpha, residues 132 to 208; numbered along this chain, P19793 (parent)
chain: KHICAICGDRSSGKHYGVYSCEGCKGFFKRTVRKDLTYTCRDNKDCLIDKRQRNRCQYCRYQKCLAMGMKREAVQEE

Variants of: B1
Assay: abundance fitness (aPCA) (normalised: wild type 0, dead -1); higher = more abundant; growth selection in yeast, the domain comes from the species named
Conditions: Homo sapiens

Abundance fitness, by site and new letter:
S20: E -0.202, R -0.571, A 0.047, G 0.065, V 0.035, C 0.049, H 0.015, Y -0.025, Q 0.012, I 0.019, P -0.09, L 0.05, M -0.027, W 0.045, D -0.276, N 0.031
G23: C -0.258, H -0.089, K -0.128, N -0.269, T -0.256, M -0.305, L -0.407, V -0.144, F -0.424, I -0.407, E -0.039, S -0.288, Q -0.157, R -0.037, W -0.015, Y -0.312, D 0.049, P -0.126, A -0.082
F27: S 0.004
R30: S -0.158, T -0.124, C -0.41, L -0.178, M -0.141, Q -0.129, F -0.362, P -0.554, V -0.353, W -0.167, H -0.252, D -0.008, A -0.162, I -0.352, G -0.087, K 0.073, E -0.041
L36: P -0.067, M -0.061, A 0.031, F 0.046, D 0.053, Q 0.005, N -0.024, K -0.018, G 0.022, H 0.014, C 0.087, E 0.021
G13: K 0.084, I -0.367, R -0.024, S -0.121, W -0.659, Q -0.009, L -0.082, T -0.005, N 0.048, M -0.042, Y 0.017, P -0.118, V -0.067
T31: E -0.188, F -0.078, R -0.504, K -0.233, S -0.02, L -0.136, I -0.092, H -0.132, W -0.043, M 0, Y -0.094, C -0.005, N -0.114, A -0.03, V -0.003, Q -0.079, P -0.641
V32: W -0.211, N 0.015, Y -0.079, G -0.046, F 0, R -0.171, K -0.012, P -0.298, A -0.013, S -0.085, E 0.026, T 0.024, H -0.064, I -0.083, Q -0.017
G17: R -0.095, S -0.029, M 0.025, I -0.275, A -0.106, L -0.107, D 0.031, Q -0.089, E 0.005, Y -0.1, C -0.002, K -0.085, H -0.053, F -0.088, W -0.163, P -0.277, N 0.056
V18: H -0.356, G 0.013, A -0.133, N -0.574, R -0.227, Y -0.262, L -0.141, I -0.142, M -0.147, T -0.357, P -0.18, C -0.078, F -0.144, S -0.328, D -0.205, E 0.01
G26: M -0.071, L -0.132, H -0.021, Y -0.081, D 0.024, I -0.116, P -0.503, A 0.002, Q 0.038, N -0.123, W -0.052, C -0.077, S -0.087, E -0.043, F -0.138, R -0.018, V 0.007
F28: P -0.906, D -0.57, W -0.024, N -0.653, K -1.13, I -0.289, A -0.49, Y -0.13, E -0.289, L -0.316, S -0.824, M 0.024, C -0.753, V -0.321, T -0.894, R -0.917, H -0.495
C21: G -0.956, I -1.12, F -0.962, S -0.98, D -0.413, Q -1.02, E -0.845, A -1.07, N -0.803, T -1.05, P -0.9, M -0.827, Y -0.676, H -0.933, L -0.986, W -1.03
D35: Y -0.131, G -0.028, N -0.164
C24: F -0.889, W -1.01, N -1.18, E -0.559, R -0.958, A -0.875, I -0.987, P -0.904, L -1.01, V -0.917, Q -0.891, M -1.18, G -0.945, Y -1.09, H -0.971, D -0.049, S -1, K -1.15
K29: W 0.003, H -0.074, S -0.059, I -0.163, G 0.025, R -0.003, M 0.038, A 0.05, L 0.009, N 0.027, T 0.021, F -0.035, V 0.054, E 0.028, P -0.531, D -0.013, C -0.223
H15: D -0.08, G -0.056, Q -0.007, L -0.138, S -0.196, A -0.13, M -0.234, Y -0.05, W -0.078, K -0.138, T -0.24, C -0.081, V -0.098, R -0.039, P -0.034, F -0.064, I -0.181, E -0.065
Y16: N -0.089, P -0.082, A 0.011, H -0.031, E 0.078, T -0.04, D 0.046, Q 0.063, W -0.015, R -0.055, F 0.06, S 0.014, M -0.001, V 0.004, G 0.015, L -0.035, K -0.092, C -0.013
R33: G -0.014, C -0.287, S -0.074, I 0.004, T -0.012, E 0.044, L -0.096, V 0.018, D -0.005, Y -0.158, M -0.003, A 0.038, N -0.017, P -0.143, W -0.002, F -0.033, K 0.05
K14: C -0.027, F 0.017, Q 0, W -0.013, P -0.004, A -0.027, D 0.018, M 0.001, V -0.057, G -0.004, L -0.094, N -0.028, I -0.112, H -0.414, T -0.039, S -0.04, Y -0.218, E -0.034, R -0.115
Y19: R -0.097, M -0.015, A -0.036, P 0.006, C -0.116, E -0.047, I -0.107, L -0.04, T -0.073, D -0.041, S -0.067, K -0.032, H -0.068, G -0.207
E22: C -0.043, N -0.079, S -0.063, P -0.037, I -0.011, A -0.048, W -0.007, K 0.015, V -0.053, Y -0.135, G 0.031, M -0.136, Q -0.094, H -0.104, R -0.002, D -0.062, F -0.097
